Assay: soluble on expression in E. coli; label from the status in PepcDB or PDB records

| Sequence | soluble on expression in E. coli |
| --- | --- |
| SLMAGSFCWRMLGLVSKVGNRARCFSSVAASEEELLDFSGSELQFNSCSLHLSLHPFFNFLLGIHSCFVCKESKTDVKRCVVTQCGKFYHEACVKKYPLTVFESRGFRCPLHSCVSCHASNPSNPRPSKGKMMRCVRCPVAYHSGDACLAAGCSVIASNSIICTAHFTARKGKRHHAHVNVSWCFVCSKGGSLLCCESCPAAFHPDCLNIEMPDGSWFCNDCRAGKKLHFQDIIWVKLGNYRWWPAEVCHPKNVPPNIQKMKHEIGEFPVFFFGSKDYYWTHQARVFPYMEGDRGSRYQGVRGIGRVFKNALQEAEARFREIKLQREARETQESERKPPPYKHIKVNKPYGKVQIYTADISEIPKCNCKPTDENPCGFDSECLNRMLMFECHPQVCPAGEFCQNQCFTKRQYPETKIIKTDGKGWGLVAKRDIRKGEFVNEYVGELIDEEECMARIKHAHENDITHFYMLTIDKDRIIDAGPKGNYSRFMNHSCQPNCETLKWTVNGDTRVGLFAVCDIPAGTELTFNYNLDCLGNEKTVCRCGASNCSGFLGDRPKTSTTLSSEEKGKKTKKKTRRRRAKGEGKRQSEDECFRCGDGGQLVLCDRKFCTKAYHLSCLGLGKRPFGKWECPWHHCDVCGKPSTSFCHLCPNSFCKEHQDGTAFSCTPDGRSYCCEHDLGAASVRSTKTEKPPPEPGKPKGKRRRRRGWRRVTEGK | soluble |
| MQPTETSQPAPSDQGRRLKDQLSESMSFSSQMKKEDDELSMKALSAFKAKEEEIEKKKMEIRERVQAQLGRVEDESKRLAMIREELEGFADPMRKEVTMVRKKIDSLDKELKPLGNTVQKKETEYKDALEAFNEKNKEKVELITKLQEGESEKFRFKKLEELSKNIDLTKP | not soluble |
| ETVLADRFERLVELVTMMGDQGELPIAMALANVVPCSQWDELARVLVTLFDSRHLLYQLLWNMFSKEVELADSMQTLFRGNSLASKIMTFCFKVYGATYLQKLLDPLLRIVITSSDWQHVSFEVDPTRLEPSESLEENQRNLLQMTEKFFHAIISSSSEFPPQLRSVCHCLYQVVSQRFPQNSIGAVGSAMFLRFINPAIVSPYEAGILDKKPPPIIERGLKLMSKILQSIANHVLFTKEEHMRPFNDFVKSNFDAARRFFLDIASDCPTSDAVNHSLSFISDGNVLALHRLLWNNQEKIGQYLSSNRDHKAVGRRPFDKMATLLAYLGPPEH | soluble |
| MKAHVLFSGGKDSSLSAIILHNLGYEIQLVTVNFGVLDSYLHAEETAKIIGYSHKVELIDKELIEKSVDMILKDGYPGNGIQFVHKQVLEIISEKYDVIADGTRRDDRVPRLDHSELQSLEMRKNIQYVTPLMGFGHKTLRNLVNNYFIISEKESEELLKSDYETEIRELIRQRGIDPLEYFPKHIQSRVIGLKR | not soluble |
| MEDVVLPLKKVLRVATEADYKCVAENGDSCQKAFLLCDEKIRERELDMSLVDVDYTFDRNKIIFYFTAEGRVDFRELVKDLASVFRTRIELRQIGVRDEAKLEHHHHHH | not soluble |
| MGSDKIHHHHHHMETLRILHTNDLHSHFEHFPKIRRYLKQVQETAAADQVLTFDAGDFMDRSHPLSDATEGQANIRLMNDFHYDAITIGNNEGISNPHAVLERLFDHANFPVLLSNLREEDESWPAWANDYKIIKTKKGTRLALVGLTAAYPMTYGPNHWQIKMLGETMDRVLPEIAGQYDCLILLTHVGLRMDQWLAKHYPEIDLIVGGHSHTLLEKGVKEGRTWITQTDKWGNYVGDISLEIGDDHKIISIKPTTVPVADLPSQAGDEAEIAALYEEGQKMLQSRHVADLPEKFKDDKLAAIDVSLEAIADFAGTDLAMLSTGLFLTPFKGGLINQFDLQHALPHPMHVVRTTLLGRDLWRLVMEVEKNRHFLENYPLVGMSFRGKIFGQVYYRGIKYDPMTRNVFVNGQLLDPAEEYRIAVLDHYVLIPFFPTLAIVGENEFLFPQFLREVVGDYLGRKYPMKKEGE | not soluble |
| MSIPITVKTVADLIIGEKGIICGFTDEETSLKLLEMGCLPGCEIELDRKAPLGDPICINVCGYTLSMRLEEASTILLSLEHHHHHH | not soluble |
| MAHHHHHHMLSTACRAPVRGRAYCGCNRGLVSFSFYSTFAGDRRGAGGDETSGANSGGSGDSGETPKASKATVEERRRMAKSWENAFFGRVHYEPGMHDRYQAALDAEVEEHATLDEKDRCDRLPNWPDDEETPLHEFLQLSDAAKKRYIVRRLTMGERRINYAPYYGSLLMMQHLNLGELMISDAEHLVRESGWMTECVASKIEAVRECASKIKFEYDLD | not soluble |
| MDSHCRVRPAGPAVPADCDPPRITHAALAARLGDARLLTLYDQATWSEGPAWWEAQRTLVWSDLVGRRVLGWREDGTVDVLLDATAFTNGNAVDAQQRLVHCEHGRRAITRSDADGQAHLLVGRYAGKRLNSPNDLIVARDGAIWFTDPPFGLRKPSQGCPADPELAHHSVYRLPPDGSPLQRMADLDHPNGLAFSPDEQTLYVSQTPEQGHGSVEITAFAWRDGALHDRRHFASVPDGLPDGFCVDRGGWLWSSSGTGVCVFDSDGQLLGHIPTPGTASNCTFDQAQQRLFITGGPCLWMLPLP | soluble |
| MSLAPQRCHRFQSSAYRSNQWRYRGRCDSIQFAVDRRVFIAGLGLYGSSSGKAEYSVKIELKRLGVVLAQNLTKFMSDGSSNTFPVWFEHPVQVEQDTFYTASAVLDGSELSYFGQEGMTEVQCGKVAFQFQCSSDSTNGTGVQGGQIPELIFYAEGHHHHHH | soluble |
| MSEAESCEETSKEHRIWKKNVPYLYDTVVTKEVEWPSLSVQWMPDVTKTENSDSSMHRMIHGTHTCGGVQNHLMISKFTITTDTPEFDDAKWDSEREEFGGYGEGSAAKWDTEIKINHPGEVHRARYMPHNPFIIASRGPSDDVYIFDYTKHPSEPKDTKFRPQLRLKGHEGEGYGMSWSNTREGHLLTAGDDGMICHWDINANQTISGQIVPQSKFKGHSSNAEDVSFHALHNFVFGSVGDDRKLNLWDLRQSKPQLTAVGHTAEVNCITFNPFSEYILATGSVDKTVALWDMRNMRKKMYTLKHHNDEIFQVSFSPHYETVLASSGSDDRVIVWDISKIQDPSSSSAASSDSVPPEVIFIHAGHTGKVADFSWNPNRPWTICSSDEFNALQVWEVSNSLVSSEKWETEMI | not soluble |
| MGSDKIHHHHHHAEVDQATKPAEAKYYIAGTITDATTGQELTTAKVTLGDKSVTSSFNEQVNYKAEGYALVVSADGYYPVKRQVYLNQVSDGQTSVATVNVALVSVEAAVIPPVVPPTDPETDINEGEATKVADKAVEVAKPSESTVTDMLAGTTATPEEKKALDETLEMAGGMKVGETTPEVLADGSILAITPVKFTNPIQDAPAMVPYFYNEGCELTGDVKEVAAPVTRADGAVAADIQKAFLSNAAKALNMNAGFVQKIGYTRISVLNGYSILGYTIKGQLVSKKLTFLISGKYYEGIVSYQKSVMIYPNYYSHDSHDSHDSHGFNPNAGGGSND | not soluble |
| MKLSRISAINWNKIQDDKDLEVWNRLTSNFWLPEKVPLSNDIPAWQTLSAAEQQLTIRVFTGLTLLDTIQNIAGAPSLMADAITPHEEAVLSNISFMEAVHARSYSSIFSTLCQTKEVDAAYAWSEENPPLQRKAQIILAHYVSDEPLKKKIASVFLESFLFYSGFWLPMYFSSRGKLTNTADLIRLIIRDEAVHGYYIGYKYQIALQKLSAIEREELKLFALDLLMELYDNEIRYTEALYAETGWVNDVKAFLCYNANKALMNLGYEALFPPEMADVNPAILAALSPNADENHDFFSGSGSSYVMGKTVETEDEDWNF | soluble |
| MKIRSLIRVRLTRFFPSDRYIKNRCSGADGVLIDFEKKEDKVDDYKLSSFHRLKNSKFSLPKLLVDPVTTNSNQWIPRLIEEKSVDGVAMRNFTDDVISLDNEIFTMIWDTREQRITHSIISYHRINDCDIMWNSSIRTAVQDSLEHDIQPLAARTLRFRDYETAVQEFEILRQIGFTGAVIRNPNLIEMTNEIFEK | not soluble |

— the DeepSol protein solubility set
